Data published in patent publication US20210246218A1 (LYVGEN BIOPHARMA SUZHOU, published 2021).
Where a chain is given by its changes, count along the chain named. Names may count otherwise.

B1: humanized anti-CD137 antibody clone 3712 (IgG4 S228P/kappa) (antibody, V domains shown)
VH: QVQLVQSGAEVKKPGASVKVSCKASGYTFAGFEMHWVRQAPGQGLEWMGAIDPKTGGTDYNQKFKDRVTMTRDTSISTAYMELSRLRSDDTAVYYCARDLGYFDVWGQGTLVTVSS
VL: DIQMTQSPSSLSASVGDRVTITCRASQDIRSNLNWYQQKPGGAVKLLIYYTSRLHSGVPSRFSGSGSGTDYTLTISSLQPEDFATYFCQQSEKLPRTFGGGTKVEIRR
B2: reference antibody 371 (murine/human chimeric) (antibody, V domains shown)
VH: QVQLQQSGAELVRPGASVTLSCKASGYTFAGFEMHWIKQTPVHGLGWIGAIDPKTGGTDYNQKFKDKALLTADKSSNTAYMELRSLTSEDSAVYYCTRDLGYFDVWGTGTTVTVSS
VL: DIQMTQTTSSLSASLGDRVTISCRASQDIRSNLNWYQQKPDGTVKLLIYYTSRLHSGVPSRFSGSGSGTDYSLTISNLEQEDIATYFCQQSEKLPRTFGGGTKLEIRR
B3: humanized anti-CD137 antibody clone 3711 (IgG4 S228P/kappa) (antibody, V domains shown)
VH: B1 VH
VL: B1 VL with G42K, V44P, Y71F, F87Y
B4: humanized anti-CD137 antibody clone 3715 (IgG4 S228P/kappa) (antibody, V domains shown)
VH: B1 VH with K12V, E46G, R72A, A97T
VL: B1 VL
B5: humanized anti-CD137 antibody clone 3719 (IgG4 S228P/kappa) (antibody, V domains shown)
VH: B1 VH with K12V, V20L, V37I, E46G, M48I, V68A, M70L, R72A, A97T
VL: B1 VL with V104L
B6: humanized anti-CD137 antibody clone 3716 (IgG4 S228P/kappa) (antibody, V domains shown)
VH: B1 VH with K12V, E46G, R72A, A97T
VL: B1 VL with V104L
B7: humanized anti-CD137 antibody clone 3714 (IgG4 S228P/kappa) (antibody, V domains shown)
VH: B1 VH with K12V, E46G, R72A, A97T
VL: B1 VL with G42K, V44P, Y71F, F87Y
B8: humanized anti-CD137 antibody clone 3718 (IgG4 S228P/kappa) (antibody, V domains shown)
VH: B1 VH with K12V, V20L, V37I, E46G, M48I, V68A, M70L, R72A, A97T
VL: B1 VL
B9: humanized anti-CD137 antibody clone 3713 (IgG4 S228P/kappa) (antibody, V domains shown)
VH: B1 VH
VL: B1 VL with V104L
B10: humanized anti-CD137 antibody clone 3717 (IgG4 S228P/kappa) (antibody, V domains shown)
VH: B1 VH with K12V, V20L, V37I, E46G, M48I, V68A, M70L, R72A, A97T
VL: B1 VL with G42K, V44P, Y71F, F87Y

What follows are binders tested against T1, CD137 protein (UniProt Q07011 24-186, limits assumed) (assay: BLI (Octet Red 96); reference apparently the parental chimeric antibody 371).
T1 construct: also called CD137 antigen; CD137 receptor
Procedure: (§1) The chimeric and humanized antibodies were tested in an antigen binding assay on Octet Red 96 to estimate binding kinetics. Antibodies were loaded onto anti-human Fc (AHC) biosensors. Loaded sensors were dipped into a serial dilution of CD137 protein (300 nM, 1:3 down, 7 points) in assay buffer (PBS with 0.1% BSA, 0.02% Tween-20 (pH 7.2)).

| Binder | fold higher off-rate |
| --- | --- |
| B1 | 3 fold |

These binders were tested against T1, CD137 protein (assay: BLI (Octet Red 96), antibody on anti-human Fc sensors, CD137 protein in solution, 1:1 model).
Procedure: as §1

| Binder | Kd | koff | kon |
| --- | --- | --- | --- |
| B2 | 3.9 nM | 0.0011 s⁻¹ | 280000 M⁻¹ s⁻¹ |
| B3 | 2.4 nM | 0.00046 s⁻¹ | 190000 M⁻¹ s⁻¹ |
| B1 | 10 nM | 0.0031 s⁻¹ | 310000 M⁻¹ s⁻¹ |

Molecular target: T1, CD137 protein
Assay: as above
Remark: another data set of the same source
Procedure: as §1, with “KD Measurements of CD137 Antigen Binding were made according to the protocol described in Example 2 above. The” for “The”, “antigen-binding” for “antigen binding”

| Binder | Kd | koff | kon |
| --- | --- | --- | --- |
| B2 | 3.9 nM | 0.0011 s⁻¹ | 280000 M⁻¹ s⁻¹ |
| B4 | 5.9 nM | 0.0018 s⁻¹ | 310000 M⁻¹ s⁻¹ |
| B5 | 8.5 nM | 0.0026 s⁻¹ | 310000 M⁻¹ s⁻¹ |
| B6 | 7 nM | 0.0022 s⁻¹ | 320000 M⁻¹ s⁻¹ |
| B7 |  | < 1e-07 s⁻¹ | 130000 M⁻¹ s⁻¹ |
| B3 | 2.5 nM | 0.00046 s⁻¹ | 190000 M⁻¹ s⁻¹ |
| B8 | 8.3 nM | 0.0026 s⁻¹ | 310000 M⁻¹ s⁻¹ |
| B9 | 3.8 nM | 0.0011 s⁻¹ | 290000 M⁻¹ s⁻¹ |
| B10 | 2.3 nM | 0.00034 s⁻¹ | 150000 M⁻¹ s⁻¹ |
| B1 | 10 nM | 0.0031 s⁻¹ | 310000 M⁻¹ s⁻¹ |

These binders were tested against T1, CD137 protein (assay: competition ELISA with CD137L: CD137 receptor coated, antibody titrated, CD137L added; A450-A620 falls with the antibody concentration (midpoint of an inhibition curve, called EC50 in the sheet's table)).
Procedure: CD137 receptor was diluted in DPBS to 1 μg/mL, and then coated onto an ELISA plate (Corning, Catalog number: 9018, high binding) with a volume of 50 μL (0.05 μg) per well, and incubated at 4° C. overnight. The plate was decanted and washed once; assay diluent was added 200 μL/well. […] The diluted CD137 receptor was added to the assay plate, 50 μL/well, in duplicate. The plate was incubated one hour at room temperature. […] The plate was incubated one hour at room temperature and then washed three times with PBST. Goat anti-human IgG-H+L HRP conjugated at 1:100,000 20 dilution was added to the plate at 100 μL/well. The plate was then incubated one hour at room temperature followed by washing with PBST four times. The TMB substrate solution was added at 100 μL/well. The color was allowed to develop for 15 minutes, and was stopped with 100 μL/well 2N H2SO4. Absorbance at 450 nm and 620 nm was determined by a Tecan F200 Pro reader.

| Binder | EC50 |
| --- | --- |
| B2 | 0.101 µg/mL |
